The source of these data is patent US20220056131A1 (MacroGenics, published 2022).

Changes are numbered by the printed parent chain. In names and notes the source's numbering stands.

For assay [1], the target named is soluble human CD3 (extracellular domain of human CD3) (human). Nature of the assay: BIACORE SPR, capture with anti-EK antibodies, bivalent fit. For orientation: In SPR one partner is held on a chip, and binding of the other changes the refractive index at the surface.
Assay [2] deals with T1, soluble cynomolgus monkey CD3 (cynomolgus monkey).
T1 chain: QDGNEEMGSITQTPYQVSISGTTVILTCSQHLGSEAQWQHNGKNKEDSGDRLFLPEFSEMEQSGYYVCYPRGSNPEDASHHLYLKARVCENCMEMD
Described as above.

In assay [3] the target is soluble human CD3 (extracellular domain of human CD3) (human). Briefly: capture ELISA, plate coated with 1 µg/ml shCD3, OD450. On the technique in general: ELISA stands for enzyme-linked immunosorbent assay.
Assay [4] shares this target. Nature of the assay: capture ELISA, plate coated with 0.5 µg/ml shCD3, OD450.
For assay [5] the target is unchanged. Briefly: capture ELISA, plate coated with 1 µg/ml soluble human CD3, OD450.
For assay [6], the target named is T1, soluble cynomolgus monkey CD3. Briefly: capture ELISA, plate coated with 1 µg/ml soluble cynomolgus monkey CD3, OD450.
The target is the same in assay [7]. Briefly: bispecific binding ELISA with soluble cynomolgus CD3 and soluble human B7H3 (sheet title 'sCynCD3-shB7H3 Bispecific Binding Elisa'); format not described, OD450.
The target of assay [8] is T2, epidermal growth factor receptor (EGFR) on A498 kidney cancer cells or A431 epidermoid carcinoma cells (UniProt P00533 25-1210, limits assumed).
T2 construct: whole, on cells
Briefly: flow cytometry, binding to A498 kidney cancer cells, MFI. For orientation: In flow cytometry, cells or beads pass a laser one at a time.

soluble human CD3 (extracellular domain of human CD3) (human), sequence (P07766 23-126, chain 1 of 2): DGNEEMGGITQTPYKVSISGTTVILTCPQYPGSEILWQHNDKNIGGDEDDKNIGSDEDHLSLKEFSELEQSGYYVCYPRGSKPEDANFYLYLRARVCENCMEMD
soluble human CD3 (extracellular domain of human CD3) (human), sequence (P04234 22-105, chain 2 of 2, further chain): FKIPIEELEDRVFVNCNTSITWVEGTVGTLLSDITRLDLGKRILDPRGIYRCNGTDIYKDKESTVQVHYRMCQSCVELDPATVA

B1: chimeric variant of mAb2 antibody (ch-mAb2) (antibody, V domains shown)
VH: EVKLLESGGGLVQPKGSLKLSCAASGFTFNTYAMNWVRQAPGKGLEWVARIRSKYNNYATYYADSVKDRFTISRDDSQSILYLQMNNLKTEDTAMYYCVRHGNFGNSYVSWFAYWGQGTLVTVSA
VL: QAVVTQESALTTSPGETVTLTCRSSTGAVTTSNYANWVQEKPDHLFTGLIGGTNKRAPGVPARFSGSLIGDKAALTITGAQTEDEAIYFCALWYSNLWVFGGGTKLTVLG
notes: also called chimeric mAb2; mAb2 chimeric antibody
In the case of B1, the Kd in assay [1] was determined as 14.7 nM; in assay [2], 14.4 nM. For the same molecule, the kon – broadly, the second-order rate constant of association – in assay [1] was found to be 170000 M⁻¹ s⁻¹; in assay [2], 160000 M⁻¹ s⁻¹. The EC50 (read off the curve) – broadly, the concentration that produces a half-maximal response – in assay [3] was 0.03 µg/mL; in assay [4] it was 0.03 µg/mL; in assay [5], 0.03 µg/mL; in assay [6] it was ~0.03 µg/mL.

B2: antibody having an h-mAb2 VL-6 light chain and the heavy chain of the mAb2 chimeric antibody (antibody, V domains shown)
VH: B1 VH
VL: QAVVTQEPSLTVSPGGTVTLTCRSSTGAVTTSNYANWVQQKPGQAPRGLIGGTNKRAPWTPARFSGSLLGGKAALTITGAQAEDEADYYCALWYSNLWVFGGGTKLTVLG
notes: also called h-mAb2 VL-6 light chain antibody (Kabat F36V and T46G)
Take B2: the EC50 (read off the curve) in assay [4] was 0.04 µg/mL; in assay [5], 0.03 µg/mL; in assay [6] it was ~0.03 µg/mL.

B3: h-mAb2VH-8 HC / ch-mAb2 LC (antibody, V domains shown)
VH: B1 VH with K3Q, L5V, K15G, K19R, Q78K, S79N, I80S, N87S, M95V, A125S
VL: B1 VL
notes: also called ch-mAb2 LC / h-mAb2VH-8 HC
As for B3, the concentration for a half-maximal effect (EC50 (read off the curve)) in assay [5] is 0.03 µg/mL; in assay [6], ~0.03 µg/mL.

B4: antibody having an h-mAb2 VL-8 light chain and the heavy chain of the mAb2 chimeric antibody (antibody, V domains shown)
VH: B1 VH
VL: B2 VL with Q40E
Turning to B4, the EC50 (read off the curve) came to 0.03 µg/mL in assay [3] and 0.04 µg/mL in assay [4].

B5: humanized mAb2 (h-mAb2) (antibody, V domains shown)
VH: B1 VH with K3Q, L5V, K15G, K19R, Q78K, S79N, I80S, N87S, M95V, A125S
VL: B2 VL
notes: also called humanized variant of mAb2
Consider B5, for which the Kd was 20 nM in assay [1] and 24.1 nM in assay [2]. The association rate constant (kon) was determined as 190000 M⁻¹ s⁻¹ in assay [1] and 170000 M⁻¹ s⁻¹ in assay [2]. The half-maximal effective concentration (EC50 (read off the curve)) in assay [5] was 0.03 µg/mL; in assay [6], ~0.03 µg/mL.

B6: B7-H3-2-h-mAb2 DART diabody (bispecific antibody)
chain 1: DIQLTQSPSFLSASVGDRVTITCKASQNVDTNVAWYQQKPGKAPKALIYSASYRYSGVPSRFSGSGSGTDFTLTISSLQPEDFATYYCQQYNNYPFTFGQGTKLEIKGGGGSGGGGEVQLVESGGGLVQPGGSLRLSCAASGFTFNTYAMNWVRQAPGKGLEWVARIRSKYNNYATYYADSVKDRFTISRDDSKNSLYLQMNSLKTEDTAVYYCVRHGNFGNSYVSWFAYWGQGTLVTVSSGGCGGGEVAALEKEVAALEKEVAALEKEVAALEK
chain 2: QAVVTQEPSLTVSPGGTVTLTCRSSTGAVTTSNYANWVQQKPGQAPRGLIGGTNKRAPWTPARFSGSLLGGKAALTITGAQAEDEADYYCALWYSNLWVFGGGTKLTVLGGGGSGGGGEVQLVESGGGLVQPGGSLRLSCAASGFTFSSFGMHWVRQAPGKGLEWVAYISSDSSAIYYADTVKGRFTISRDNAKNSLYLQMNSLRDEDTAVYYCGRGRENIYYGSRLDYWGQGTTVTVSSGGCGGGKVAALKEKVAALKEKVAALKEKVAALKE
notes: Two-chain diabody, hBRCA84D (anti-B7-H3) x h-mAb2
As to B6, the concentration for a half-maximal effect (EC50 (read off the curve)) in assay [7] is ~0.03 µg/mL.

B7: 4420 x huXR32 (bispecific antibody)
4420VL-hXR32VH-E coil: DVVMTQTPFSLPVSLGDQASISCRSSQSLVHSNGNTYLRWYLQKPGQSPKVLIYKVSNRFSGVPDRFSGSGSGTDFTLKISRVEAEDLGVYFCSQSTHVPWTFGGGTKLEIKGGGSGGGGEVQLVESGGGLVQPGGSLRLSCAASGFTFNTYAMNWVRQAPGKGLEWVARIRSKYNNYATYYADSVKDRFTISRDDSKNSLYLQMNSLKTEDTAVYYCVRHGNFGNSYVSWFAYWGQGTLVTVSSGGCGGGEVAALEKEVAALEKEVAALEKEVAALEK
hXR32VL-4420VH-K coil: QAVVTQEPSLTVSPGGTVTLTCRSSTGAVTTSNYANWVQQKPGQAPRGLIGGTNKRAPWTPARFSGSLLGGKAALTITGAQAEDEADYYCALWYSNLWVFGGGTKLTVLGGGGSGGGGEVKLDETGGGLVQPGRPMKLSCVASGFTFSDYWMNWVRQSPEKGLEWVAQIRNKPYNYETYYSDSVKGRFTISRDDSKSSVYLQMNNLRVEDMGIYYCTGSYYGMDYWGQGTSVTVSSGGCGGGKVAALKEKVAALKEKVAALKEKVAALKE
Turning to B7, in assay [8], the binding result is given as “no binding”.
